Results taken from patent US20250257126A1 (CAMBRIDGE ENTERPRISE, published 2025).

T1: human LGR5-eGFP transgene (human, UniProt O75473 22-907)
T1 construct: Tested on live or fixed cells and as cell lysates on western blots; also called hLGR5-eGFP; LGR5-GFP
T1 sequence: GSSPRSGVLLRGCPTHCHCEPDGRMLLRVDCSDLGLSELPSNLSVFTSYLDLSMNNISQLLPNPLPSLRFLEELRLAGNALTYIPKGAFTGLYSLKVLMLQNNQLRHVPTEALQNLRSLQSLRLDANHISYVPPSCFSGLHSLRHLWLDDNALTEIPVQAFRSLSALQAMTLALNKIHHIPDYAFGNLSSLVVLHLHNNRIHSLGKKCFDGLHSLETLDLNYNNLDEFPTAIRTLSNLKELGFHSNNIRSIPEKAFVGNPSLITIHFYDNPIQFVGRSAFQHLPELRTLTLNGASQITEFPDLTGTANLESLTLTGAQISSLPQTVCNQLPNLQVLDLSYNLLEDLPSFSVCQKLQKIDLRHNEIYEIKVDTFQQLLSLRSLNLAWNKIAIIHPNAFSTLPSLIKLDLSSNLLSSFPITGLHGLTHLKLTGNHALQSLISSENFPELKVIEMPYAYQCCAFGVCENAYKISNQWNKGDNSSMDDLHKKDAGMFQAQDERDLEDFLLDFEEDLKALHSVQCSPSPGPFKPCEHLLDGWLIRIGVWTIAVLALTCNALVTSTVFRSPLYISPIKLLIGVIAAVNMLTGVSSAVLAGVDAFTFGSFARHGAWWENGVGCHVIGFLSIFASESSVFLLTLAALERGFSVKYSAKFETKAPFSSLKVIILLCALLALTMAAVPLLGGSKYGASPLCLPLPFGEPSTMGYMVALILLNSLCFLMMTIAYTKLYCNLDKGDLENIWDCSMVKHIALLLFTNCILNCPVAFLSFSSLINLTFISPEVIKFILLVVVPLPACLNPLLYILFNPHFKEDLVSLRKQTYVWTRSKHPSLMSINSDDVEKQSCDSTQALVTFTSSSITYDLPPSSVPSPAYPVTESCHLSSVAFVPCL

T2: human LGR6 transgene (human, UniProt Q9HBX8 25-967)
T2 construct: whole, on cells; Overexpressed in HEK293T cells with N-terminal HA tag, V2 receptor tail and eGFP; also tested as lysate; also called hLGR6; LGR6-eGFP
T2 sequence (looked up): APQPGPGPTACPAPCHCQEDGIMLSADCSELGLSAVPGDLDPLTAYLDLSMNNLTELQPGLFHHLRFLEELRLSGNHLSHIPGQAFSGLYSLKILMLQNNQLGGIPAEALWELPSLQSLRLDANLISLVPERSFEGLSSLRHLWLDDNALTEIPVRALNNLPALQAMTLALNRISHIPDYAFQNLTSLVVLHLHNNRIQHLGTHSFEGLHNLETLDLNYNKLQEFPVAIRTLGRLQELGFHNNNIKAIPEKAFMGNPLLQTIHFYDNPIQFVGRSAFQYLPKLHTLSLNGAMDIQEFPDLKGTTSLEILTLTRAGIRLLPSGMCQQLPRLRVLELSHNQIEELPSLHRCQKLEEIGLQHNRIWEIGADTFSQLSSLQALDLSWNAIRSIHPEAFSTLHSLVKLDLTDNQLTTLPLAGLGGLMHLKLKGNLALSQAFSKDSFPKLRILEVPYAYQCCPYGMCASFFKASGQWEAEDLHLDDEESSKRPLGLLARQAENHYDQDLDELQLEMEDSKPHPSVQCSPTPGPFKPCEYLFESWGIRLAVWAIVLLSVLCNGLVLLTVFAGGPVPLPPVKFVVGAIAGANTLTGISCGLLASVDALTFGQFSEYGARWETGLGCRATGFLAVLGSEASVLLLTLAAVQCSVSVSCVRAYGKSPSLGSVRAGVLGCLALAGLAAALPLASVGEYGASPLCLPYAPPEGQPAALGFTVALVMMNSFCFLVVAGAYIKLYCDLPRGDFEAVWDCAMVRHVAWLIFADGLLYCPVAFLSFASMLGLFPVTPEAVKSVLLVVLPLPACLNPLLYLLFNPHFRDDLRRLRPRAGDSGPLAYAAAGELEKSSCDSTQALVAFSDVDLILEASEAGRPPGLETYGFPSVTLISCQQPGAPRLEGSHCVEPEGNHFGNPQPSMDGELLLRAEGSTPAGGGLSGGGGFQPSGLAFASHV

T3: murine LGR6 transgene (mouse, UniProt Q3UVD5 23-967)
T3 construct: whole, on cells; also called mLGR6
T3 sequence (looked up): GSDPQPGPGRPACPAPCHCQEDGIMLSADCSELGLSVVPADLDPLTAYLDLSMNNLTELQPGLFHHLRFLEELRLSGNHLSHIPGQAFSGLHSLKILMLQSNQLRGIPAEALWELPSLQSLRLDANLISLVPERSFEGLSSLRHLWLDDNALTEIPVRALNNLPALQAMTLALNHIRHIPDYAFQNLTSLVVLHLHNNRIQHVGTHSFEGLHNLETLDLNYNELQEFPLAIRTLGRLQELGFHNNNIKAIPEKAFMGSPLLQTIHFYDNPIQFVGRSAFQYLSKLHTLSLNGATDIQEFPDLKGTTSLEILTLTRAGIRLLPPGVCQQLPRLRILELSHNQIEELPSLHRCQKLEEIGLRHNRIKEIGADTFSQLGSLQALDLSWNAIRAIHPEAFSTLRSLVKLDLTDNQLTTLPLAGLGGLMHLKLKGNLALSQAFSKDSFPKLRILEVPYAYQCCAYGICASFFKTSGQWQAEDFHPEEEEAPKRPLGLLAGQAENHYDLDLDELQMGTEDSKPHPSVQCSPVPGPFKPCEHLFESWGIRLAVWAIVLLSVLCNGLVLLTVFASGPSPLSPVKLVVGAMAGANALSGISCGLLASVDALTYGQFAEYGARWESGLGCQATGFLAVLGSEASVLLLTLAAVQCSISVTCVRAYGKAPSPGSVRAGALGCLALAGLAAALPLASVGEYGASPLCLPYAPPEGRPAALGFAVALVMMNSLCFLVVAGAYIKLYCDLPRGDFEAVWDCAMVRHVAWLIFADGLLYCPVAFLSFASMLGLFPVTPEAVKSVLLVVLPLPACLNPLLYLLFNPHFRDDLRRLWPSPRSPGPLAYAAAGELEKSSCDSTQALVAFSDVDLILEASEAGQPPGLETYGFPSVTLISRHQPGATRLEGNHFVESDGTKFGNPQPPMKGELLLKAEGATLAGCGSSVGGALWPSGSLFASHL


What was measured:
[1] = target: T1, human LGR5-eGFP transgene; assay: western blot of lysates of HEK293T cells expressing mLGR5, hLGR5 or cynoLGR5 transgenes, probed with hybridoma clone 3
human LGR6 transgene = target: T2, human LGR6 transgene; assay: indirect immunofluorescence on HEK293T cells expressing human and murine LGR family transgenes (FIG. 14B)
murine LGR6 transgene = target: T3, murine LGR6 transgene; assay: as above

binding result [1]	binding result (human LGR6 transgene)	binding result (murine LGR6 transgene)	Binder
binds			α-LGR5 clone 3 (antibody, mouse IgG1, kappa, V domains shown, Murine monoclonal antibody from hybridoma; also called hybridoma clone 3; antibody 3) VH: QVQLQQPGAELVKPGASVKLSCKASGYTFTSYWMQWVKQRPGQGLEWIGEIDPSDSYSNYNQKFKGKATLTVDTSSSTAYMQLSSLTSEDSAVYYCARSLSGYVDYWGQGTTLTVSS VL: DIQMTQTTSSLSASLGDRVTISCRASQDISNRLNWYQQKPDGTVKLLISYRSRLQSGVPSRFSGSGSGTDYSLTISNLEEEDIATYFCQQGNTLPPTFGGGTKLEVRR
	no binding	no binding	α-LGR5 variant 4 (antibody, human IgG1, kappa, V domains shown, Humanized antibody; also called α-LGR5v4; clone 2.4) VH: QVQLVQSGAEVKKPGASVKVSCKASGYTFTNYWMQWVRQAPGQGLEWIGEIDPSDSYTNYNQKFQGRVTLTVDTSTSTAYMELSSLRSEDTAVYYCARSLSGYVDYWGQGTTVTVSS VL: EIVMTQSPATLSLSPGERATLSCRASQDISNRLNWYQQKPGQAVRLLISYRSRRHTGIPARFSGSGSGTDYTLTISSLEPEDFAVYYCQQGNSLPPTFGGGTKLEIKR
